From publication doi:10.1101/869925 (bioRxiv, 2019)

Experiments:
native gel or EMSA = target: the molecule itself; experiment: native gel or EMSA
[1] = target: the molecule itself; experiment: fluorescence correlation spectroscopy

| Protein | stoichiometry N (native gel or EMSA) | binding result [1] |
| --- | --- | --- |
| endogenous human drebrin-like protein (DBNL) (natural protein) not shown | 2 | – |
| his-EmGFP-DBNL(1-256) (domain or fragment) not shown | – | binds |
| his-EmGFP-DBNL(1-374) (domain or fragment) not shown | – | binds |
